From article PMC7658359

How the values were obtained:
[1] = target: Arabidopsis histone H2A (HTA1)-H2B (HTB1) dimer, Q9LD28;Q9LQQ4; assay: ITC
[2] = target: Arabidopsis histone H2A (HTA1)-H2B (HTB1) dimer (Arabidopsis thaliana) (UniProt Q9LD28); assay: ITC; MicroCal iTC200; OsChz1-C or its mutants injected into histone H2A-H2B or H2A.Z-H2B solutions; 19 injections of 2 μl
[3] = target: Arabidopsis histone variant H2A.Z (HTA9)-H2B (HTB1) dimer (Arabidopsis thaliana) (UniProt Q9C944); assay: as above

Arabidopsis histone H2A (HTA1)-H2B (HTB1) dimer (Arabidopsis thaliana), sequence (Q9LD28 whole entry, chain 1 of 2): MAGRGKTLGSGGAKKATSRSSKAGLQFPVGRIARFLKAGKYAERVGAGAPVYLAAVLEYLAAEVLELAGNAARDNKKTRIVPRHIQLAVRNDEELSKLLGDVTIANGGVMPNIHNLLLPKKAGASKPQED
Arabidopsis histone H2A (HTA1)-H2B (HTB1) dimer (Arabidopsis thaliana), sequence (Q9LQQ4 whole entry, chain 2 of 2, further chain): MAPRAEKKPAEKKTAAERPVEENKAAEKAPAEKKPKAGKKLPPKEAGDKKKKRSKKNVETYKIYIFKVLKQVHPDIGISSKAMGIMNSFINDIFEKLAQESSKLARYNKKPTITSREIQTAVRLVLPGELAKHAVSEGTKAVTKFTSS

Substance | Kd [1] | Kd [2] | Kd [3]
OsChz1-C (OsChz1 338–471), wild type 1M | 150 nM |  | 
OsChz1-C (OsChz1 338–471), wild type 2M | 259 nM |  | 
OsChz1-C (OsChz1 338–471), wild type 3M | 146 nM |  | 
OsChz1-C (OsChz1 338–471), wild type (domain or fragment) |  | 9.8 nM | 64.1 nM
